The results in this text go back to US20240327504A1 (MABLOC, published 2024).

The target in this experiment is SARS-CoV-2 Spike, WT (SARS-CoV-2, UniProt P0DTC2 14-1273). The experiment can be described thus: cell-based or functional assay.

B1: MR22950 antibody (antibody, V domains shown)
VH: QLQLQESGPGLVKPSEPLSLTCAVSGGFIGTNWWTWIRQPPGKGLEWIGRISGSVGSTSYNPSLKSRVTISRDTSKNQFSLNLNSLTAADTAVYYCAREGRLDTLDWGQGVLVIVSS
VL: QSVLTQPPSASEAARKSVTISCSGSSSNIGSYSVSWYQQFPGTPPKLLIYFNDQRASGVSDRFSGSKSGTSASLAISGLQTEDEADYYCAGWDDSLNGVLFGGGTRLTVLG
For the molecule B1, the “Neut50” value was found to be 6 ng/mL.
